Key:
AncSZ = assay: phosphorylation enrichment, bacterial display (enrichment ratio); higher = better substrate or ligand; peptides without Tyr show the background
EPHB1 = EPHB1 (UniProt P54762); assay: as above
EPHB2 = EPHB2 (UniProt P29323); assay: as above
FGFR1 = FGFR1 (UniProt P11362); assay: as above
FGFR3 = FGFR3 (UniProt P22607); assay: as above
Fer (mouse) = assay: as above
Fes = Fes (UniProt P07332); assay: as above
Fyn = Fyn (UniProt P06241); assay: as above
Hck = Hck (UniProt P08631); assay: as above
Jak2 = Jak2 (UniProt O60674); assay: as above
MERTK = MERTK (UniProt Q12866); assay: as above
c-Abl (mouse) = assay: as above
c-Src = assay: as above
Grb2 SH2 = Grb2 SH2 (UniProt P62993); assay: SH2 binding enrichment of the phosphorylated peptide, bacterial display (enrichment ratio); higher = better substrate or ligand; peptides without Tyr show the background
SHP2-C SH2 = assay: as above
c-Src SH2 = assay: as above
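Wherever SH2 binding enrichment of the phosphorylated peptide, bacterial display is given: peptide library displayed on the E. coli surface as eCPX fusions, selected cells deep-sequenced, score is each peptide's frequency after selection divided by its frequency in the input.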
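Wherever phosphorylation enrichment, bacterial display is given: 11-residue human phosphosite peptides and single-mutation variants displayed on the E. coli surface, counted by deep sequencing, each peptide's frequency after selection divided by its frequency in the unselected input library; frequency after pTyr selection over input frequency; kinase dosed for 20-30% of maximal phosphorylation in three min.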

Sequence of MERTK (Q12866 whole entry, looked up): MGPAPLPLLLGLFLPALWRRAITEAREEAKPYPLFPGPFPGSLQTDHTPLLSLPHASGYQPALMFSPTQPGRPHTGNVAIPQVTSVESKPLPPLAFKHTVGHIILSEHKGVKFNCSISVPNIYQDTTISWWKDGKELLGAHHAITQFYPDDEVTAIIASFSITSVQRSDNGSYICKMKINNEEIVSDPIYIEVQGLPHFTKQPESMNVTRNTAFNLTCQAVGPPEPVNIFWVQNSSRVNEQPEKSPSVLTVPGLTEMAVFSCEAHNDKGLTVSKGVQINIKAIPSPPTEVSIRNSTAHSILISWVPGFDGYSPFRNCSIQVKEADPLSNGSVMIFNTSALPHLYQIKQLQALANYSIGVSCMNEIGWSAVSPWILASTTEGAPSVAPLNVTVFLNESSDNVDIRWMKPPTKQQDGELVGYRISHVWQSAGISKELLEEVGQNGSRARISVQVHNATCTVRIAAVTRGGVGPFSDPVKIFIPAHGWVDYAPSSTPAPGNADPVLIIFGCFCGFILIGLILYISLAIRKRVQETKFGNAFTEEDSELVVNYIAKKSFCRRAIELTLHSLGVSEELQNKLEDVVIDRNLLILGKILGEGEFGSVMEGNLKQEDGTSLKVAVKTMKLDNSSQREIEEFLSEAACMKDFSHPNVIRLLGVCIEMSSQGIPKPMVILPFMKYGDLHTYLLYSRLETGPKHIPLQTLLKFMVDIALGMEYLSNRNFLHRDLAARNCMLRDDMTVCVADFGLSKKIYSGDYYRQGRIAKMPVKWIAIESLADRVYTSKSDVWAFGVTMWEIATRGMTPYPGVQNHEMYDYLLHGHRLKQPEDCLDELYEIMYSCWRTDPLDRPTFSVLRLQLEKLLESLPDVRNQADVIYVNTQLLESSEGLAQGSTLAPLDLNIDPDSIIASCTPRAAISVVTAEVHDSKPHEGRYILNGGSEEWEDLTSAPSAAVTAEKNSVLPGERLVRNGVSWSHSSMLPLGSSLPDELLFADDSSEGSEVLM
Sequence of EPHB1 (P54762 whole entry, looked up): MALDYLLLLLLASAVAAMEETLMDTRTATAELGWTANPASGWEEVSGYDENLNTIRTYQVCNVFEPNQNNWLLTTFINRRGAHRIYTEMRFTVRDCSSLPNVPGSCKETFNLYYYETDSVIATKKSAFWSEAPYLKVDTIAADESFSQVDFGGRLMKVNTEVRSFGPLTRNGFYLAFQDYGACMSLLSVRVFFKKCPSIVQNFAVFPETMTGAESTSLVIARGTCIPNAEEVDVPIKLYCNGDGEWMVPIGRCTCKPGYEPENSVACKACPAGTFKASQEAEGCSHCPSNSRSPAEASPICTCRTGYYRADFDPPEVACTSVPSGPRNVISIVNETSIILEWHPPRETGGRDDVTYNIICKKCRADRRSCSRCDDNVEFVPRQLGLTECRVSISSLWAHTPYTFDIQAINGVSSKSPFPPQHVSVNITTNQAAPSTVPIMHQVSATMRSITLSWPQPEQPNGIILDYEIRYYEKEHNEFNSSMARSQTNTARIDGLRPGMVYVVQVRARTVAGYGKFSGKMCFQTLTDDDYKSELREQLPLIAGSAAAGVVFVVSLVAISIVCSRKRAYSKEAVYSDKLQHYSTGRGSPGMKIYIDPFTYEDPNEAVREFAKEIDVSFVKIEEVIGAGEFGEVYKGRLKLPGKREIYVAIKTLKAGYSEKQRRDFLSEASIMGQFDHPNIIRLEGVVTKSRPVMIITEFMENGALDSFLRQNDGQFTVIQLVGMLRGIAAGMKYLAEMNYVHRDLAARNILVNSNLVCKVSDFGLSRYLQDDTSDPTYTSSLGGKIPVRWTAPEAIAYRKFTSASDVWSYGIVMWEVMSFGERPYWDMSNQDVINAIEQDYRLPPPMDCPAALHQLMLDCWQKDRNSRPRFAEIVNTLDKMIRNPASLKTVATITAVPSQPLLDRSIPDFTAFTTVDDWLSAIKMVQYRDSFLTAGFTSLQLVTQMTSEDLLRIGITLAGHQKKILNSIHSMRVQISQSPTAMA
Sequence of Fyn (P06241 whole entry, looked up): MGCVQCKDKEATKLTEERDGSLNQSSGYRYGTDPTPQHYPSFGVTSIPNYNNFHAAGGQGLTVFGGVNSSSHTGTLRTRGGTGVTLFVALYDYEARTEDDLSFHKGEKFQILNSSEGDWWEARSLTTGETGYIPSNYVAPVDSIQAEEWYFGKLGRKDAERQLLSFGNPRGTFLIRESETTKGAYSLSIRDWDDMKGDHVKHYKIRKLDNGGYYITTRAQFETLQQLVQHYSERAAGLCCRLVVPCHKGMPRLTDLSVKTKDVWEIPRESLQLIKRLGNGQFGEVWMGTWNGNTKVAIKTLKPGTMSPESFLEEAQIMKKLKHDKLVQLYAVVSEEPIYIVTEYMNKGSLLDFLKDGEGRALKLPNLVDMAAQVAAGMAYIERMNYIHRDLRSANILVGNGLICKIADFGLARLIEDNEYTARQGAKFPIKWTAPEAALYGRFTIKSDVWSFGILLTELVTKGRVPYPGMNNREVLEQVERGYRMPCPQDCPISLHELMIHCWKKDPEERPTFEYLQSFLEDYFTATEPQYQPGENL
Sequence of FGFR3 (P22607 whole entry, looked up): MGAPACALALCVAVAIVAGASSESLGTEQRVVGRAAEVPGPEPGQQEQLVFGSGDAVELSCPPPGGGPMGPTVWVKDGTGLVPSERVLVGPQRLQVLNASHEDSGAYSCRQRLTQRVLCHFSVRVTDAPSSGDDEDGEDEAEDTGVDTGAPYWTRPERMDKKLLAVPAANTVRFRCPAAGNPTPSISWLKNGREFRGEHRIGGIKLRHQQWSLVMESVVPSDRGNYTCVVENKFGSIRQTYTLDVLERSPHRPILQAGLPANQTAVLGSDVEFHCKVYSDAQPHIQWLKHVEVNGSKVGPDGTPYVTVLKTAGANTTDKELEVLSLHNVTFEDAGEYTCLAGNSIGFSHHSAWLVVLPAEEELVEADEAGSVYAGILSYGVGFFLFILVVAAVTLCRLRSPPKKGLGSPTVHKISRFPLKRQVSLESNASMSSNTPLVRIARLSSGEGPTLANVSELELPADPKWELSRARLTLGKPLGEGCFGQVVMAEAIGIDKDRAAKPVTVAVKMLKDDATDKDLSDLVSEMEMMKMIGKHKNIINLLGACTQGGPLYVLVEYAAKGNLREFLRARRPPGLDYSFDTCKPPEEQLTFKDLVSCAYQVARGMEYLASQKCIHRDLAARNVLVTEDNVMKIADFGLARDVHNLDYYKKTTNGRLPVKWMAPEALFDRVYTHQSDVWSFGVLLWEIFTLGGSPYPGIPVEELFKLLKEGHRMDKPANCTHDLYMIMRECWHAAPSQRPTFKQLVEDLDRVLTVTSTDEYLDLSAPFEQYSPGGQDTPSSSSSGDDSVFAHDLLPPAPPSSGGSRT
Sequence of Hck (P08631 whole entry, looked up): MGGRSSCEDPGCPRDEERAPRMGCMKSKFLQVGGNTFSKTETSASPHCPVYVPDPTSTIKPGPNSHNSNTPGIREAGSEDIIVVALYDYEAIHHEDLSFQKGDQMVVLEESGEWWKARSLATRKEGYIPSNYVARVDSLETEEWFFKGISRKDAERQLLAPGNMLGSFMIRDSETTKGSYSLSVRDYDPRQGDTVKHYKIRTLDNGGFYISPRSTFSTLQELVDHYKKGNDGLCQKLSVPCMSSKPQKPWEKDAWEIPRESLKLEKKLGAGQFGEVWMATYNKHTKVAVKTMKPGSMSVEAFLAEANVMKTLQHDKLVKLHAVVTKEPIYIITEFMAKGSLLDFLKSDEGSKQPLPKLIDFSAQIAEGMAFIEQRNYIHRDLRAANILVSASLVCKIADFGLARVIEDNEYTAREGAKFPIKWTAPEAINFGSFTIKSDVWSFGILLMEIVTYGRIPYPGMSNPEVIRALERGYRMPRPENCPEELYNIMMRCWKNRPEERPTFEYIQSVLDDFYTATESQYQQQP
Sequence of Fes (P07332 whole entry, looked up): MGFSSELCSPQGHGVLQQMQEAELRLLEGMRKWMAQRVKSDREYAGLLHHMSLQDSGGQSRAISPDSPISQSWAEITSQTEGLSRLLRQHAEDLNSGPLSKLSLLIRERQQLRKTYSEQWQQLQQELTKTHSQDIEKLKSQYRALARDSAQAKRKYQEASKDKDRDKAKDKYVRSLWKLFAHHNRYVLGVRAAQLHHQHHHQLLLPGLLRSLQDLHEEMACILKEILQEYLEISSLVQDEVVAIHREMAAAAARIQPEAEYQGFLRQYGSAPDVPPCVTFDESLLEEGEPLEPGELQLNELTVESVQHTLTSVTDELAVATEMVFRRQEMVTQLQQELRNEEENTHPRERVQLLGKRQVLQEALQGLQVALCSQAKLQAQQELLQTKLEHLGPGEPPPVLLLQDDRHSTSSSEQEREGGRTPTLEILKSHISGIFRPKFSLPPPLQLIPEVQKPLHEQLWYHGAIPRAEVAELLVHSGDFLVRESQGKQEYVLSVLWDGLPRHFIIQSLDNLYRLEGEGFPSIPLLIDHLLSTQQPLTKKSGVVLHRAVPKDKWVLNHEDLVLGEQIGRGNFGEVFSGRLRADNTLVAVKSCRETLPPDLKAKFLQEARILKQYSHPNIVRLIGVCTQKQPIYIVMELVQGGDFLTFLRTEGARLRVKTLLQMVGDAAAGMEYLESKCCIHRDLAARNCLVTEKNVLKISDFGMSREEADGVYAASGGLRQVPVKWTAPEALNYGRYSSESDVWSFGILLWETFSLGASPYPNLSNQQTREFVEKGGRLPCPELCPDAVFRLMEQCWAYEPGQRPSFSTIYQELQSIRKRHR
Sequence of Grb2 SH2 (P62993 whole entry, looked up): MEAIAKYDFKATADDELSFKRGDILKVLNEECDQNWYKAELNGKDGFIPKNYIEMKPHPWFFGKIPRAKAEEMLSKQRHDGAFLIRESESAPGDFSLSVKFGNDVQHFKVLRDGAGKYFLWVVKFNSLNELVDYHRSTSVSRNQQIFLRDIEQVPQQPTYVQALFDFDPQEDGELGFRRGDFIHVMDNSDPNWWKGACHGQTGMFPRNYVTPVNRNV

Sequence | phosphorylation enrichment (AncSZ) | phosphorylation enrichment (EPHB1) | phosphorylation enrichment (EPHB2) | phosphorylation enrichment (FGFR1) | phosphorylation enrichment (FGFR3) | phosphorylation enrichment (Fer (mouse)) | phosphorylation enrichment (Fes) | phosphorylation enrichment (Fyn) | phosphorylation enrichment (Hck) | phosphorylation enrichment (Jak2) | phosphorylation enrichment (MERTK) | phosphorylation enrichment (c-Abl (mouse)) | phosphorylation enrichment (c-Src) | SH2 binding enrichment (Grb2 SH2) | SH2 binding enrichment (SHP2-C SH2) | SH2 binding enrichment (c-Src SH2)
FCIDHYLGKEM [G6PD_Y202_R198C_YF] | 0.725 | 0.581 | 0.505 | 0.397 | 0.569 | 0.633 | 0.901 | 0.657 | 0.43 | 0.63 | 0.375 | 0.49 | 0.394 | 0.836 | 0.969 | 0.735
FDCGMYSHLQG [LGR4_Y848_YF] | 1.37 | 1.08 | 0.969 | 0.89 | 1 | 1.64 | 1.31 | 0.985 | 3.54 | 1.18 | 4.74 | 1.07 | 3.25 | 0.727 | 1 | 1.79
FDCKWYIPLTD [BCR_Y756_YF] | 1.45 | 0.998 | 0.818 | 0.661 | 1.06 | 0.66 | 1.49 | 0.41 | 0.581 | 1.44 | 0.625 | 0.826 | 0.466 | 0.772 | 0.745 | 0.482
FEGAIYRKDVG [GART_Y417] | 0.645 | 0.332 | 0.312 | 0.347 | 0.539 | 0.662 | 0.707 | 0.405 | 0.514 | 0.467 | 0.288 | 0.457 | 0.393 | 0.664 | 0.582 | 0.451
FEPWVYSFSFE [PRKDC_Y647_YF] | 1.59 | 0.775 | 0.744 | 0.653 | 1.03 | 1.34 | 1.65 | 6.63 | 3.01 | 1.25 | 1.66 | 0.842 | 6.33 | 0.736 | 0.738 | 0.551
FEPWVYSFSYE [PRKDC_Y647] | 1.43 | 0.759 | 0.654 | 0.655 | 1.03 | 1.35 | 1.36 | 6.53 | 2.94 | 1.3 | 1.22 | 0.861 | 5.83 | 0.767 | 0.592 | 0.705
FETVKYINNER [ABCB7_Y345_F346I_YF] | 0.903 | 0.46 | 0.403 | 0.525 | 0.64 | 0.424 | 0.954 | 0.452 | 0.472 | 0.712 | 0.418 | 0.617 | 0.431 | 1.23 | 0.713 | 0.441
FFRRHYPLTTL [TNS4_Y644] | 0.995 | 0.408 | 0.497 | 0.426 | 0.467 | 0.455 | 0.917 | 0.426 | 0.399 | 0.876 | 0.491 | 0.587 | 0.516 | 1.15 | 0.566 | 0.422
FGFPGYQCKHF [TIMP3_Y177_S179C_YF] | 0.695 | 0.337 | 0.514 | 0.517 | 0.535 | 0.473 | 0.789 | 0.445 | 0.506 | 0.831 | 0.542 | 0.716 | 0.548 | 1.37 | 0.703 | 0.83
FGLDHYQCDCT [PTGS1_Y54_R53H] | 0.956 | 0.401 | 0.5 | 0.453 | 0.68 | 0.464 | 0.986 | 0.379 | 0.424 | 0.812 | 0.489 | 0.61 | 0.464 | 1.13 | 1.59 | 1.14
FGLTLYPNSRE [MEP1A_Y472_V469L] | 0.911 | 0.55 | 0.56 | 0.682 | 0.698 | 0.413 | 1.09 | 0.471 | 0.397 | 0.68 | 0.385 | 0.629 | 0.394 | 1.12 | 0.893 | 0.661
FIATQYSLCPR [LBR_Y166_R169C_YF] | 1.03 | 0.618 | 0.666 | 0.475 | 0.762 | 0.631 | 1.07 | 0.486 | 0.749 | 1.14 | 0.752 | 0.777 | 0.683 | 1.02 | 0.851 | 0.687
FIGRIYLYLTK [GARS1_Y414] | 1.64 | 0.556 | 0.39 | 0.487 | 0.627 | 0.535 | 1.12 | 0.445 | 0.416 | 1.14 | 0.538 | 1.18 | 0.469 | 1.05 | 1.25 | 0.74
FIRRDYEACKA [BBS4_Y48_K46R_YF] | 0.761 | 0.514 | 0.59 | 0.45 | 0.494 | 0.434 | 0.758 | 0.525 | 0.442 | 0.573 | 0.4 | 0.549 | 0.616 | 0.918 | 1.01 | 0.682
FISVGYVDDTQ [HLA-B_Y51] | 0.808 | 0.507 | 0.593 | 0.556 | 0.743 | 0.471 | 1.05 | 0.47 | 0.444 | 0.801 | 0.432 | 0.752 | 0.405 | 1 | 0.747 | 0.599
FLAVGYHQPHI [IDS_Y225_K227Q] | 0.559 | 0.448 | 0.415 | 0.391 | 0.514 | 0.35 | 0.593 | 0.418 | 0.405 | 0.447 | 0.298 | 0.57 | 0.297 | 0.879 | 1.25 | 1.55
FMFKVYSDPQP [FGFR1_Y280_C277Y_YF] | 1.54 | 1.08 | 0.845 | 0.572 | 1.08 | 0.679 | 1.68 | 0.596 | 0.667 | 1.49 | 0.438 | 1.16 | 0.398 | 0.693 | 0.566 | 0.49

Sequence | phosphorylation enrichment (AncSZ) | phosphorylation enrichment (EPHB1) | phosphorylation enrichment (EPHB2) | phosphorylation enrichment (FGFR1) | phosphorylation enrichment (FGFR3) | phosphorylation enrichment (Fer (mouse)) | phosphorylation enrichment (Fes) | phosphorylation enrichment (Fyn) | phosphorylation enrichment (Hck) | phosphorylation enrichment (Jak2) | phosphorylation enrichment (MERTK) | phosphorylation enrichment (c-Abl (mouse)) | phosphorylation enrichment (c-Src) | SH2 binding enrichment (Grb2 SH2) | SH2 binding enrichment (SHP2-C SH2) | SH2 binding enrichment (c-Src SH2)
FNDSAYNQQLI [ZPLD1_Y198_T197A_YF] | 0.641 | 0.489 | 0.383 | 0.338 | 0.451 | 0.326 | 0.672 | 0.393 | 0.455 | 0.5 | 0.297 | 0.485 | 0.421 | 0.705 | 0.423 | 0.431
FPCSVYMPDEW [INSR_Y1011_V1012M] | 1.19 | 0.6 | 0.644 | 0.658 | 0.712 | 0.512 | 1.06 | 0.875 | 0.596 | 1.1 | 0.559 | 0.687 | 3.15 | 1 | 0.956 | 0.989
FPKARYHWLVL [APTX_Y214_YF] | 1.03 | 0.588 | 0.457 | 0.645 | 0.777 | 0.675 | 0.945 | 0.491 | 0.53 | 0.772 | 0.731 | 0.647 | 0.39 | 1.5 | 1.94 | 1.42
FPQARYHWLVL [APTX_Y214_K211Q_YF] | 0.913 | 0.568 | 0.597 | 1.92 | 1.48 | 0.539 | 1.22 | 0.459 | 0.543 | 1.28 | 1.24 | 0.858 | 0.522 | 1.25 | 1.47 | 1.13
FRASFYRRGDR [LTK_Y677_YF] | 0.756 | 0.543 | 0.552 | 0.549 | 0.526 | 0.456 | 0.631 | 0.617 | 0.463 | 0.583 | 0.722 | 0.634 | 0.709 | 0.542 | 0.471 | 0.379
FRVAGYETQGG [TIA1_Y383_YF] | 0.68 | 0.428 | 0.41 | 0.449 | 0.553 | 0.43 | 0.897 | 0.409 | 0.46 | 0.722 | 0.437 | 0.64 | 0.463 | 0.822 | 0.745 | 0.466
FSAGTYPRLEE [SYCN_Y108] | 0.765 | 0.493 | 0.464 | 0.464 | 0.659 | 0.464 | 0.918 | 0.41 | 0.406 | 0.828 | 0.372 | 0.672 | 0.392 | 0.783 | 0.612 | 1.18
FSCLPCGRLAF [SLC52A2_Y305_Y305C_YF] | 0.752 | 0.442 | 0.404 | 0.657 | 0.542 | 0.423 | 0.868 | 0.354 | 0.389 | 0.67 | 0.532 | 0.55 | 0.33 | 1.36 | 1.38 | 1.62
FSCLPYGRLAF [SLC52A2_Y305_YF] | 0.935 | 0.352 | 0.55 | 0.71 | 0.649 | 0.559 | 1.01 | 0.629 | 0.936 | 1.03 | 0.56 | 0.882 | 2.36 | 0.793 | 0.538 | 0.777
FSCLPYGRLAY [SLC52A2_Y305] | 1.01 | 0.559 | 0.513 | 0.463 | 0.641 | 0.619 | 0.98 | 0.618 | 0.894 | 0.782 | 0.393 | 0.595 | 1.84 | 0.804 | 0.465 | 0.455
FSEVRYVKEPY [HIPK4_Y170] | 0.9 | 0.474 | 0.449 | 0.668 | 0.538 | 0.404 | 1.06 | 0.372 | 0.388 | 1.06 | 0.371 | 0.783 | 0.392 | 0.908 | 0.52 | 0.624
FSGLAYTMERS [GLUD1_Y512_H507Y_YF] | 0.822 | 0.492 | 0.465 | 0.455 | 0.63 | 0.361 | 0.858 | 0.544 | 0.486 | 0.7 | 0.364 | 0.613 | 0.935 | 0.856 | 0.838 | 0.5
FSKRIYKGMVA [PCDH15_Y931] | 0.426 | 0.231 | 0.5 | 0.262 | 0.367 | 0.369 | 0.534 | 0.392 | 0.352 | 0.402 | 0.362 | 0.332 | 0.338 | 0.773 | 0.555 | 0.462
FSVDSYDSSVR [KCNQ1_Y461_G460S] | 0.734 | 0.451 | 0.87 | 0.44 | 0.548 | 0.498 | 1.39 | 0.474 | 0.47 | 0.693 | 0.406 | 0.523 | 0.474 | 1.02 | 0.865 | 0.718
FTGNTYRVGDT [FN1_Y106_YF] | 0.634 | 0.382 | 0.464 | 0.372 | 0.472 | 0.396 | 0.667 | 0.424 | 0.293 | 0.499 | 0.394 | 0.479 | 0.476 | 0.893 | 0.853 | 0.479
FTGVEYSSCDT [EPHA3_Y937] | 1.12 | 0.629 | 0.637 | 0.478 | 0.721 | 0.491 | 1.12 | 0.524 | 0.545 | 0.905 | 0.419 | 0.755 | 0.555 | 0.832 | 1.14 | 1.92
